# Where a chain is given by its changes, count along the chain named. Names and notes keep the numbering of the source. Where two headings read alike, the source gives them in different places.
# T1: Notum (Homo sapiens, UniProt Q6P988)
# T1 sequence (Q6P988 20-496): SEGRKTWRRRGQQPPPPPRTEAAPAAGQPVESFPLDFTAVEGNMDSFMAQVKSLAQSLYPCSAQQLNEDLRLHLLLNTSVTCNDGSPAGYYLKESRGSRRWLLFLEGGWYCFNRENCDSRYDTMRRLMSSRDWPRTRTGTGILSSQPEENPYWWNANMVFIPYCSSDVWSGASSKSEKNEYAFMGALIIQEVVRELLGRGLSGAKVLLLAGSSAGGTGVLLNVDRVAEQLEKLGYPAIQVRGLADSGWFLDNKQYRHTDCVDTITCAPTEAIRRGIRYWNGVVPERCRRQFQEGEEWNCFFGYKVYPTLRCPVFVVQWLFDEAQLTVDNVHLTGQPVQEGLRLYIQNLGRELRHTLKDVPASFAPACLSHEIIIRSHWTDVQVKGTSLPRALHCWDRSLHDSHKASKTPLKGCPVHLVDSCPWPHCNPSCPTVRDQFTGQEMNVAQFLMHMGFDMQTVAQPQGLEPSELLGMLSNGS
# B1: hNotum-His: recombinant His tagged human Notum protein (protein)
# chain: T1 sequence (Q6P988 20-496)
# modifications: left off: small tags and cut ends
# notes: recombinant His tagged human Notum protein
# B2: human-NOTUM S232A mutant: human Notum with S232A point mutation of the putative catalytic nucleophile (His and hFc) (protein, UniProt Q6P988 20-496, looked up, variant S232A)
# Palmitoleoyl-protein …: T1 sequence (Q6P988 20-496) with S213A
# modifications: His tag or human Fc
# B3: hNotum: recombinant human Notum protein (e.g. hNotum-His or hNotum-hFc) (protein)
# chain: T1 sequence (Q6P988 20-496)
# B4: macaque Notum: recombinant macaque Notum protein, construct not stated (protein)
# chain: SEGRKTWRRRGQQPPPPPRTEAAPAAGQPVESFPLDFTAVEGNMDSFMAQVKSLAQSLYPCSAQQLNEDLRLHLLLNTSVTCNDGSPAGYYLKESRGSRRWLLFLEGGWYCFNRENCDSRYNTMRRLMSSRDWPRTRTGTGILSSQPEENPYWWNANMVFIPYCSSDVWSGASSKSEKNEYAFMGALIIQEVVRELLGRGLSGAKVLLLAGSSAGGTGVLLNVDRVAEQLEELGYPAIQVRGLADSGWFLDNKQYRHTDCVDTITCAPTEAIRRGIRYWNGVVPERCRRQFQEGEEWNCFFGYKIYPTLRCPVFVVQWLFDEAQLTVDNVHLTGQPVQESQRLYIQNLGRELRHTLKDVPASFAPACLSHEIIIRSHWTDVQVKGTSLPRALHCWDRSLHDSHKNSKTPLKGCPVHLVDSCPWPHCNPSCPTVRDQFTGQEMNVAQFLMHMGFDVQTVAQQQGPEPSKLLGL
# modifications: left off: a dimerising Fc or GST
# Legend:
# [1] = molecular target: Wnt3A (conditioned medium from L/Wnt3A cells, ATCC CRL-2647) (UniProt P27467); experiment: cell-based or functional assay; set-up: unit not given beside the values
# [2] = molecular target: T1, Notum; experiment: 4-MUH assay, small molecule inhibition of Notum; assay type: biochemical; details: 4-MUH 240 μM or 90 μM; orlistat 0-170 μM
# Protocol: (§1) In addition to the assays described in Examples 23 and 24, a fluorescent esterase substrate, 4-methylumbelliferyl heptanoate (Sigma), can be used to measure the activity of hydrolases using standard assay conditions (Richardson and Smith, 2007, PMID: 17620441; Jacks and Kircher, 1967, PMID: 5582971). Briefly, 4-MUH was dissolved in DMSO to a final concentration of 1.2 mM. This substrate was diluted 1:10 into assay buffer (0.1M Tris, pH 7.5, 50 mM NaCl, 0.05% Brij) and incubated with defined amounts of Notum enzyme or point-mutated Notum enzymes, and enzymatic release of the fluorescent molecule 4-methylumbelliferone monitored (355 nm excitation, 460 nm emission) using a Wallac Victor3 Multilabel Counter (Perkin Elmer).
# Consistent with a putative hydrolase activity for Notum, it could be hypothesized that this inactivation is related to the ability of Notum to delipidate Wnt3A. Two lipids are known to be linked to Wnt3A, a saturated palmitate chain at Cys77 and an unsaturated palmitoleoylic chain at S209 (Lorenowicz and Korswagen, 2009, PMID: 19559695). […] Therefore, the 4-MUH assay described in example 25 was performed in the presence of varying amounts of 4-MUH substrate (240 μM or 90 μM) and orlistat (0-170 μM).
# [3] = tested on: luciferase transcription in the 293.TCF cells; experiment: Luciferase reporter activation in 293.TCF cells; assay type: cell-based, human; details: 40 mM
# Text: To generate a stable population of cells that contain a reporter for the activation of canonical Wnt signaling, HEK 293T cells were transduced with a lentiviral vector, pGreenFirel-TCF (System Biosciences) which encodes a bifunctional GFP and luciferase reporter cassette under the control of a minimal CMV reporter linked to four tandem repeats of the transcriptional response elements for TCF. Transduced cells populations, termed 293.TCF cells, were subsequently used in a Wnt3A canonical signaling assay as follows: 2.5×10^4 293.TCF cells were plated per well of a 96-well tissue culture plate in 50 μL of serum-free DME medium. After 24 hours of serum starvation, 25 μL of various dilutions of conditioned medium (CM) from L/Wnt3A cells (ATCC CRL-2647; Willert, 2003) or undiluted CM from parental L-cells (ATCC CRL-2648) along with 25 μL of DMEM+0.2% FBS were added to each well. […] The contents of each well were then mixed thoroughly to lyse the cells, 100 μL of lysate transferred to black 96-well plates, and the luminescence in each well read after 5 mins using a Wallac Victor3 Multilabel Counter (Perkin-Elmer Corp). […] More particularly, as the Wnt3A+ CM media is diluted from 25% down to approximately 3%, activation of the Wnt pathway is reduced with a corresponding decrease in luminescence.
# [4] = tested on: Wnt3A-mediated induction of luciferase in the 293.TCF cells; experiment: Wnt3A canonical signaling assay, bioactivity of Notum constructs; assay type: cell-based, human
# Text: To generate a stable population of cells that contain a reporter for the activation of canonical Wnt signaling, HEK 293T cells were transduced with a lentiviral vector, pGreenFirel-TCF (System Biosciences) which encodes a bifunctional GFP and luciferase reporter cassette under the control of a minimal CMV reporter linked to four tandem repeats of the transcriptional response elements for TCF. Transduced cells populations, termed 293.TCF cells, were subsequently used in a Wnt3A canonical signaling assay as follows: 2.5×10^4 293.TCF cells were plated per well of a 96-well tissue culture plate in 50 μL of serum-free DME medium. After 24 hours of serum starvation, 25 μL of various dilutions of conditioned medium (CM) from L/Wnt3A cells (ATCC CRL-2647; Willert, 2003) or undiluted CM from parental L-cells (ATCC CRL-2648) along with 25 μL of DMEM+0.2% FBS were added to each well. Eighteen hours after addition of CM, 100 μL of One-Glo solution (ProMega Corp.) was added to each well. The contents of each well were then mixed thoroughly to lyse the cells, 100 μL of lysate transferred to black 96-well plates, and the luminescence in each well read after 5 mins using a Wallac Victor3 Multilabel Counter (Perkin-Elmer Corp). […] More particularly, as the Wnt3A+ CM media is diluted from 25% down to approximately 3%, activation of the Wnt pathway is reduced with a corresponding decrease in luminescence.
# Once the luciferase reporter system was established, assays for determining the bioactivity of various Notum modulators were performed as follows. 2.5×10^4 293.TCF cells were plated per well of a 96-well tissue culture plate in 50 μL of serum-free medium. After 23 hours of serum starvation, 25 μL of DMEM+0.2% FBS containing various Notum modulators at various concentrations (e.g., hNotum-His, hNotum-hFc, hNotum-S232A-His, murine Notum-His, murine Notum-hFc, macaque Notum-hFc, control protein-His or control protein-hFc obtained as per Examples 7, 8 and 13 above), were added to the cells. After 1 hour, 25 μL of Wnt3A or control L-cell CM were added to each well. Eighteen hours after addition of CM, 100 μL of One-Glo solution (ProMega Corp.) was added to each well, the contents of each well mixed thoroughly to lyse the cells, 100 μL of lysate transferred to black 96-well plates, and the luminescence read after 5 minutes.
# [5] = tested on: mouse lineage-depleted NTX tumor cells from SCRx-CR42; experiment: Cell survival/proliferation, CellTiterGlo, SCRx-CR42; assay type: cell-based, human; details: 10 μg/mL, 14 days
# Protocol: (§2) To determine whether Notum protein impacts cell proliferation and/or apoptosis of human colorectal cancer cells, HCT-116 cells or mouse lineage-depleted NTX tumor cells (i.e. human tumor cells) were plated as described below and exposed to recombinant hNotum (e.g. hNotum-His or hNotum-hFc) and anti-Notum antibodies. Cell numbers were then assessed 12-14 days later.
# (§3) Cells were then incubated for 14 days at 37° C., 5% CO2 and 5% O2 and the number of viable cells was assessed using Promega's CellTiterGlo assay kit per the manufacturer's instructions. For the HCT-116 cell line (a commercially available colorectal tumor cell line), cells were plated at 2,000 cells per well in DMEM+1% FBS, followed 24-hours later by the addition of serum free DMEM containing recombinant human Notum in the presence or absence of monoclonal antibodies SC2.D2.2 or SC2.10B3. HCT-116 cells were then incubated for 12 days at 37° C., 5% CO2 and cell viability was assessed with Promega's CellTiterGlo assay kit. Higher readings are indicative of higher viable cell counts.
# [6] = Esterase activity of Notum proteins on chromogenic substrates; assay type: biochemical; details: 1 hour at 37° C.
# Protocol: Briefly, PNPA or PNPB were dissolved/diluted in isopropanol to final concentrations of 10 mM. These substrate solutions were diluted 1:10 into assay buffer (0.1% gum arabic, 2.3 mg/mL sodium dexoycholate, 1×PBS) and incubated with defined amounts of hNotum enzyme, and the enzymatic release of the chromophore p-nitrophenol monitored by absorbance measurements at 405 nm.
# [7] = 4-MUH fluorescent hydrolase assay, activity of Notum constructs; assay type: biochemical
# Protocol: as §1
# [8] = Lipase activity of hNotum, turbidometric Tween 20 lipolysis; assay type: biochemical
# Protocol: Briefly, recombinant hNotum (1 μg/well) was added to an assay buffer containing 50 mM Tris, pH 7.4, 33.3 mM CaCl2, and 0.33% Tween-20. When the Tween 20 monolauryl group is cleaved by lipases (e.g. hNotum), the free fatty acid forms an insoluble complex with the Ca^2+ cations resulting in a turbid solution, the OD of which can be measured at 405 nm to provide a measure of lipase activity. As a positive control, the activity of porcine pancreatic lipase (Sigma Aldrich) was measured in the same assay.
# [9] = tested on: HCT-116 cells; experiment: Cell survival/proliferation, CellTiterGlo, HCT-116; assay type: cell-based, human; details: 10 μg/mL, 12 days
# Protocol: as §2, §3
# Sequence of Wnt3A (conditioned medium from L/Wnt3A cells, ATCC CRL-2647) (P27467 19-352 limits assumed): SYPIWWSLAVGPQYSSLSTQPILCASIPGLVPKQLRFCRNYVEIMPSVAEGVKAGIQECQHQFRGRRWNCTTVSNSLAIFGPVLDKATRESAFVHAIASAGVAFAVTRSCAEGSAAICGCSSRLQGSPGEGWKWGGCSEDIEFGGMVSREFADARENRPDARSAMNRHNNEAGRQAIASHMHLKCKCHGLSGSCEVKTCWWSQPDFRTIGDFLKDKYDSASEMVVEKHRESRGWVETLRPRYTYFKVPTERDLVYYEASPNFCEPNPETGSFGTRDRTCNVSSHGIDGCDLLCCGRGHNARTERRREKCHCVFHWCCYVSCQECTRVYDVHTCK
molecule,measurement,setting,value
hNotum-Fc (human Notum fused to human IgG2 Fc) (Fc fusion),IC50 of the decrease in luciferase activity (293.TCF Wnt3A assay),[1],0.47
CCCCCCCCCCC[C@@H](C[C@@H]1OC(=O)[C@H]1CCCCCC)OC(=O)[C@H](CC(C)C)NC=O [orlistat],inhibition of hydrolysis activity of Notum upon 4MUH,[2],inhibits the hydrolysis activity of Notum upon 4MUH in a dose-dependent fashion
[Cl-].[Li+] [LiCl],activation of luciferase transcription,[3],activate luciferase transcription
B1,antagonism of Wnt3A-mediated induction of luciferase,[4],functionally antagonize
same,increase in cell counts,[5],20-45%
B2,esterase activity,[6],greatly reduced esterase activity
same,antagonism of Wnt3A-mediated induction of luciferase,[4],did not antagonize
same,antagonism of Wnt3A-mediated induction of luciferase,[4]; listed as S232A,no ability to antagonize
same,hydrolysis of the 4-MUH substrate,[7],no ability to hydrolyze the 4-MUH substrate
B3,esterase activity,[6],has carboxyesterase activity
same,antagonism of Wnt3A-mediated induction of luciferase,[4],antagonizes Wnt3A CM
same,antagonism of Wnt3A-mediated induction of luciferase,[4]; listed as wild-type human Notum,can inhibit the response of the 293.TCF cells to Wnt3A in a dose-dependent fashion
same,lipase activity,[8],capable of cleaving Tween 20 in a dose dependent fashion
same,increase in cell numbers,[9],more than 2 fold
same,hydrolysis of the 4-MUH substrate,[7],capable of hydrolyzing the 4-MUH substrate
B4,esterase activity,[6],display esterase activity

# From patent publication US20130224191A1, “NOTUM PROTEIN MODULATORS AND METHODS OF USE” (priority 2010, published 2013)
